Positions count from the first letter of the chain named.
What was measured:
[1] = molecular target: T1, anti-IBP4 antibody clone variant 5B3.G9; assay: ECLIA, peptide competes with IBP4 for the antibody
T1 construct: Mouse monoclonal; variant form expressed in CHO cells; also called IBP4 (5B3.G9) V1; IBP4-5B3.G9

[2] = molecular target: T2, anti-IBP4 antibody clone variant 7D6.G4; assay: ECLIA, peptide competes with IBP4 for the antibody
T2 construct: Mouse monoclonal; variant form; also called IBP4 (7D6.G4) V2; IBP4-7D6.G4

[3] = molecular target: T3, human insulin-like growth factor binding protein 4 (IBP4) (human, UniProt P22692 22-258); assay: SPR, format and IBP4 form not stated
T3 construct: also called IBP4 protein; IGFBP4
T3 sequence: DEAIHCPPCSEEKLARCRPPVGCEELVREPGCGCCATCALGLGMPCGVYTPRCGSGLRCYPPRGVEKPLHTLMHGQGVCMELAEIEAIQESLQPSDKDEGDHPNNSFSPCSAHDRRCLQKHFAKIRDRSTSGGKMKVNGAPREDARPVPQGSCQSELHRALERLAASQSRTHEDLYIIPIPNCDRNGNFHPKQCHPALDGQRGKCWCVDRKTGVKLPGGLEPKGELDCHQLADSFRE

[4] = molecular target: T3, human insulin-like growth factor …; assay: AC-MS, mAb on M-PVA beads, QC2 serum, round 1
[5] = molecular target: T3, human insulin-like growth factor …; assay: AC-MS, mAb on M-PVA beads, pooled pregnant serum
Description: (§1) Anti-IBP4 antibody evaluation and selection. A total of 8 hybridoma clones (1H9.B6, 5C11.A7, 7G11.H4, 3D4.E9, 1G3.A3, 8G4.G11, 5F10.B2, and 3D8.A11) were produced according to the “additional production of anti-IBP4 antibodies” methods disclosed in Example 1 and screened by AC-MS, shown in Table 10 below. Monoclonal antibodies from these clones purified by protein-G affinity chromatography were covalently coupled to M-PVA magnetic beads and used in AC-MS experiments using pooled pregnant serum. The 5B3.G9 anti-IBP4 antibody clone was included in this analysis for comparison to the performance of the additional IBP4 antibodies, as shown and italicized in Table 10 below. Table 10 includes a summary of the additional antibodies Response Ratios and shared epitope binding results as determined by the competitive binding assays of Example 3.

[6] = molecular target: T3, human insulin-like growth factor …; assay: AC-MS, mAb on M-PVA beads, QC2 serum, round 2 (beads reused)
[7] = molecular target: T3, human insulin-like growth factor …; assay: AC-MS, mAb on M-PVA beads, QC2 serum, round 3 (beads reused)
[8] = molecular target: T3, human insulin-like growth factor …; assay: AC-MS, mAb on M-PVA beads, pooled pregnant serum, peptide …
Description: as §1

[9] = molecular target: T4, human sex hormone-binding globulin (SHBG) (human, UniProt P04278 30-402, O-linked glycan at T36 (native glycosylated form)); assay: SPR (Biacore T100), mAb captured on anti-mouse IgG, SHBG antigen injected, 1:1 fit, assay 1
T4 construct: Purified human SHBG, the SHBG antigen of the SPR runs, or SHBG in human serum; also called SHBG protein
T4 sequence: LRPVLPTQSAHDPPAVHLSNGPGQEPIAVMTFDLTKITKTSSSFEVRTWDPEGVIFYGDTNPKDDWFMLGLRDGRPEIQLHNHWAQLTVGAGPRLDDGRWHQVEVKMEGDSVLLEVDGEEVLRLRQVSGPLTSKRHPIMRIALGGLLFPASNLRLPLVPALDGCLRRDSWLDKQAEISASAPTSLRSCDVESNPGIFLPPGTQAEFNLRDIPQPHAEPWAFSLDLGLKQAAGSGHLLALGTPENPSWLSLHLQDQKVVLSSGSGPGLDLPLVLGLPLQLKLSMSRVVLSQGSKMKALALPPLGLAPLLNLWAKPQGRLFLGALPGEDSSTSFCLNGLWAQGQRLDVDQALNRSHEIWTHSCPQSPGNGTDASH
Experimental: (§2) Surface plasmon resonance experiments were performed on a BiacoreT100 to characterize the anti-SHBG and anti-IBP4 antibodies. Anti-mouse-IgG antibody was amine coupled to ˜500 RU on a C1 sensor chip using standard NHS/EDC activation. Test monoclonal antibodies were captured on the anti-mouse-IgG surfaces. The binding for the Sex Hormone Binding Globulin Antigen to anti-SHBG variant antibodies 4G10.F8 and 13C9.E5 were measured in a multi-cycle kinetic mode. Binding studies were performed in PBS buffer+0.05% P20+3 mM EDTA at 25 degrees C. SHBG was captured for 1 minute at 200 nM and regenerated with 1/100 H3PO4 after each cycle. SHBG was captured to similar densities on 2 different flow cells followed by an injection of the SHBG antigen in a 3-fold titration series up to 600 nM over the two surfaces. The responses were processed by subtracting the buffer injection to correct for drift. The data sets fit well to a simple 1:1 interaction model using SCRUBBER (Biologic Software Pty Ltd). The antigen concentration series was tested three times over each surface, giving rise to the kinetic an affinity parameters summarized below.

[10] = molecular target: T4, human sex hormone-binding globulin …; assay: SPR (Biacore T100), mAb captured on anti-mouse IgG, SHBG antigen injected, 1:1 fit, assay 2
Experimental: as §2

[11] = molecular target: T4, human sex hormone-binding globulin …; assay: SPR (Biacore T100), mAb captured on anti-mouse IgG, SHBG antigen injected, 1:1 fit, assay 3
Experimental: as §2

[12] = molecular target: T4, human sex hormone-binding globulin …; assay: SPR (Biacore T100), mAb captured on anti-mouse IgG, SHBG antigen injected, average of 3 assays
Experimental: as §2

T1 sequence (heavy, as listed by the source, chain 1 of 2): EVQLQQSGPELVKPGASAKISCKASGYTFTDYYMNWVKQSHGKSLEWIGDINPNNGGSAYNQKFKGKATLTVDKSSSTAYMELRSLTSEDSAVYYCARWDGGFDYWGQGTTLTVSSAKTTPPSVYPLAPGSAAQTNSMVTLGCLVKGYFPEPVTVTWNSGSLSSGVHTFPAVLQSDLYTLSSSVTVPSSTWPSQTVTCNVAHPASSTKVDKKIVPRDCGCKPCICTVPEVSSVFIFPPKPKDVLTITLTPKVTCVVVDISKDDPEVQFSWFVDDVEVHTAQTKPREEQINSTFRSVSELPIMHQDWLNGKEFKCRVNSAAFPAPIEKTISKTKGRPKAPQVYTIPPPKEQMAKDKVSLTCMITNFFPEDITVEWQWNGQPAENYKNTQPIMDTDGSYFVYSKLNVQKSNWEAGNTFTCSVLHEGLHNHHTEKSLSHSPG
T1 sequence (light, as listed by the source, chain 2 of 2): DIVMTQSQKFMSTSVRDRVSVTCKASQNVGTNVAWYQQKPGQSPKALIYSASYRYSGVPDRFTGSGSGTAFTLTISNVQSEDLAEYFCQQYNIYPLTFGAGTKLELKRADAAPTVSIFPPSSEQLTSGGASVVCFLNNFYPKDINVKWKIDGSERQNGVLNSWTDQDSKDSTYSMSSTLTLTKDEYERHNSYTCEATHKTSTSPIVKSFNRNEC
T2 sequence (VH, as listed by the source, chain 1 of 2): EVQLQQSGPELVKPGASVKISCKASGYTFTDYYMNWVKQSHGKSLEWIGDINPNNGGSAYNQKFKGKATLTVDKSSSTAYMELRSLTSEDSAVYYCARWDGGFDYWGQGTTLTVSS
T2 sequence (VL, as listed by the source, chain 2 of 2): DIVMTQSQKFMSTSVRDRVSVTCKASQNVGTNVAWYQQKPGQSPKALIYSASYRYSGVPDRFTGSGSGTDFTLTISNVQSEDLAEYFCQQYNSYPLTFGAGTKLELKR

CHPALDGQRGKCWCV [G8]
binding result [1]: binds | binding result [2]: binds

PALDGQRGKCWCVDR [G9]
binding result [1]: binds | binding result [2]: binds

LDGQRGKCWCVDRKT [G10]
binding result [1]: binds | binding result [2]: binds

HPKQCHPALDGQRGK [G6]
binding result [1]: no binding (tested: about 7 ul of peptide) | binding result [2]: no binding (tested: about 7 ul of peptide)

VDRKTGVKLPGGLEP [H3]
binding result [1]: no binding (tested: about 7 ul of peptide) | binding result [2]: no binding (tested: about 7 ul of peptide)

B1: anti-IBP4 antibody 3D4.E9 (antibody, mouse IgG2b, kappa, V domains shown)
VH: QVQLQQSGAELVRPGASVTLSCKASGYTFTDYEMHWVKQTPVHGLEWIGAIDPETGGAAYNQKFKGKAILTADKSSSTAYMELRSLTSEDSAVYYCTRARGSSSVYYFDYWGQGTTLTVSS
VL: DIVMTQSQKFMSTSVGDRVSVTCKASQNVGTNVAWYQQKPGQSPKALIYSTSYRYSGVPDRFTGSRSGTDFILTISNVQSEDLAEYFCQQYDSYPLTFGSGTKLEIKR
notes: Mouse hybridoma mAb raised against FL IBP4; also called IBP4-3D4.E9
Kd [3]: 8 nM | koff [3]: 0.00221 s⁻¹ | kon [3]: 270000 M⁻¹ s⁻¹ | t1/2 [3]: 5.23 min | ave RR [4]: 0.491 | ave IBP4 AC-MS RR [5]: 0.439 | ave RR [6]: 0.468 | ave RR [7]: 0.454 | Response Ratio [8]: 0.439

B2: anti-IBP4 antibody 1G3.A3 (antibody, mouse IgG1)
heavy: QVQLQQSGAELVRPGASVTLSCKASGYTFTDYEMHWVKQTPVHGLEWIGAIDPETGGIAYNQKFRGKAILTADKSSSTAYMELRSLTSEDSAVYYCARNYGISSYYAVDYWGQGTSVTVSSAKTTPPSVYPLAPGSAAQTNSMVTLGCLVKGYFPEPVTVTWNSGSLSSGVHTFPAVLQSDLYTLSSSVTVPSSTWPSQTVTCNVAHPASSTKVDKKIVPRDCGCKPCICTVPEVSSVFIFPPKPKDVLTITLTPKVTCVVVDISKDDPEVQFSWFVDDVEVHTAQTKPREEQINSTFRSVSELPIMHQDWLNGKEFKCRVNSAAFPAPIEKTISKTKGRPKAPQVYTIPPPKEQMAKDKVSLTCMITNFFPEDITVEWQWNGQPAENYKNTQPIMDTDGSYFVYSKLNVQKSNWEAGNTFTCSVLHEGLHNHHTEKSLSHSPGK
light: DIVMTQSQKFMSTTVGERVSITCKASQNVGTAVAWYQQKPGQSPKLLIYSASNRYTGVPDRFTGSGSGTDFTLTISNMQSEDLADYVSQQYSSYPLTFGAGTKLELK
notes: Mouse hybridoma mAb raised against FL IBP4; also called IBP4-1G3.A3
Kd [3]: 22 nM | koff [3]: 0.0033 s⁻¹ | kon [3]: 160000 M⁻¹ s⁻¹ | t1/2 [3]: 3.5 min | ave RR [4]: 0.281 | ave IBP4 AC-MS RR [5]: 0.272 | ave RR [6]: 0.291 | ave RR [7]: 0.289 | Response Ratio [8]: 0.272

B3: anti-SHBG antibody clone variant 13C9.E5 (antibody, mouse IgG1, kappa, V domains shown)
VH: QIQLQQPGAELVKPGASVKMSCKASGYTFTGYWMHWVKQRPGQGLEWIGVIDPSDTYTNYNQKFRGKATLTVDTSSSTAYMQLSGLTSEDSAVYYCTRDPLVTADFDYWGQGTTLTVSS
VL: B1 VL with G30D, Q37R, T51A, Y55F, R66G, I72T, V78F, L96Y, S100G
notes: Mouse monoclonal; variant form; also called SHBG (13C9.E5) Anti SHBG v2; SHBG #16
Kd [9]: 0.415 nM | koff [9]: 4.54e-05 s⁻¹ | kon [9]: 109000 M⁻¹ s⁻¹ | Kd [10]: 0.765 nM | koff [10]: 7.94e-05 s⁻¹ | kon [10]: 104000 M⁻¹ s⁻¹ | Kd [11]: 1.27 nM | koff [11]: 0.000119 s⁻¹ | kon [11]: 94100 M⁻¹ s⁻¹ | Kd [12]: 0.8 nM | koff [12]: 8e-05 s⁻¹ | kon [12]: 103000 M⁻¹ s⁻¹

From US20250101096A1 (SERA PROGNOSTICS, published 2025)
